Assay: Immunogenicity after IV or IP administration to normal mice (IgG1 antibodies)
Type: in vivo, CB6F1/J mice
Conditions: 20 ug in alum, days 1, 8 and 15, FIG. 20
Description: CAB1.11i and CAB1.2i were diluted in PBS to 200 ug/ml. For the i.p. group (group 5), CAB1.11i was diluted in a 1:1 solution of alum to PBS (resulting concentration=200 ug/ml) and vortexed rapidly for 10 minutes. The mixture was left at 2-8° C. for a minimum of 15 minutes. The mixture was revortexed 1 minute prior to injection into mice. The dosing solution was stored on ice prior to administration.
Wt BLA was diluted in PBS to 400 ug/ml. For the i.p. group, group 4, wt BLA was diluted in a 1:1 solution of alum to a PBS with resulting concentration=200 ug/ml and vortexed rapidly for 10 minutes. The mixture was left at 2-8° C. for a minimum of 15 minutes. The mixture was then revortexed 1 minute prior to injection into mice. The solution was stored on ice prior to administration.
Study design is outlined in Table 7. Female CB6F1/J mice were used for each group. Mice undergoing i.v. injections were placed under a heating lamp for approximately 3 minutes to vasodilate the tail vein, and then placed in a mouse restrainer for the i.v. injection. On days 1, 8 and 15, three mice of each strain each were administered CAB1.2i (20 ug), CAB1.11i (20 ug), or wt BLA (20 ug) intravenously, or wt BLA (20 ug) or CAB1.11i (20 ug) complexed with alum administered by an i.p. injection. Dose concentrations and volumes are outlined in Table 8. Dose concentrations were formulated based on a 100 uL injection/mouse. […]

B1: beta-lactamase: unmodified beta-lactamase protein, SEQ ID NO:11 (protein)
chain: TPVSEKQLAEVVANTITPLMKAQSVPGMAVAVIYQGKPHYYTFGKADIAANKPVTPQTLFELGSISKTFTGVLGGDAIARGEISLDDAVTRYWPQLTGKQWQGIRMLDLATYTAGGLPLQVPDEVTDNASLLRFYQNWQPQWKPGTTRLYANASIGLFGALAVKPSGMPYEQAMTTRVLKPLKLDHTWINVPKAEEAHYAWGYRDGKAVRVSPGMLDAQAYGVKTNVQDMANWVMANMAPENVADASLKQGIALAQSRYWRIGSMYQGLGWEMLNWPVEANTVVETSFGNVALAPLPVAEVNPPAPPVKASWVHKTGSTGGFGSYVAFIPEKQIGIVMLANTSYPNPARVEAAYHILEALQ
modifications: beta-lactamase protein
antibody response (anti-test article IgG1): greatest antibody response
